The data set in a line: protease stability score; higher = more stable; yeast display proteolysis, trypsin and chymotrypsin.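 Further: relative to predicted unfolded state with 0 unfolded-like and 1 meaning tenfold more protease.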
“TEDEDIFRHALEVWLRSFLTGNEEILNHLFDPHARVHIDGKNLHGMEMMVTHRQRHIEEARIRDSDIEHKNVIDGRIHIDIRVHGEVNGQEMDFNVTIIAMKVDGRWLIHSLHVE” came in with a protease stability score of 0.265.
“TEDEKTAKHAKELLEHSIRTGDERLMERLLDPHALLIFDGRHIHGREDISRWYREIRIHHIHDENSEIQGDKLHLHMRIDGEYDGKRHELRVHWHSEKVNGRWSIRQVVLH”: the protease stability score was found to be 1.44.
Sequence “NELEKETHEITRRWIEILLTGNEEDWAKLADPHVRIDINGKKYVGREMVVEYLRELLDKIKNLQFHITRIHDQGDKSEIDGRLEYNGRKHEARVEIWIIDGKIRSEHYSIR” yielded a protease stability score of 2.2.
Take “DEDDEAVKRFIDEFVHSMRTGDEEKLYRLADPHVRSVIDGVEFVGMHWLTTELHHLRVQRLEFEFKDIHFQGDKAHVRGHLILTLHFNGREYVVRREVELIILKINGRWHLHEFIWR”: the protease stability score was 1.68.
As for “DEEKKNIERLTEILAHVIRTGDEESWERMMDPNARATQGDKVMVGRDLLEHLWRRIDVIDHVRLEPKHVHRQGDKIHIDVENEVHGTVNGVKISEKHKEILVIYKFDGRWHFHSIEIT”, the figure is 0.064.
With “SKISEFVKMLLEIEVHAHETGDWRHYQEMMDPHVKFELNIGNFHTLDHGRDRLIDWIEHHIKRADHLHVHIREVHVIGDKVSVRGELKTNVNGVDLEYEILQIIIVVDGRFKSIQHSYL”, the protease stability score was 0.155.
Turning to “TEDRESILKLITMEQRNLRTGDEERWHELADPDYRLEFENREIHGREHAIRFMIETTLKLGVDHVELIINDVKWQGDKLHIDGHLRLEIGDKIIEERVIIINLKVNGRWLLRRKHVG”, the protease stability score worked out at 1.03.
The sequence “SEREEHDEFIMKLSLELEKTGDEHTIERLADPNPRIILEQGDKRITRHGWEHWEELLRRLGIKHIEFHRHKAINGQVHVDGTLRFDGVTVRSELVLIMVDGVMKTIKVIIR” gave a protease stability score of 1.44.
Turning to “SEEKKLYDLAWELLLQSEKTGNEEIFERLADPHVRSHINGVDYIGRERFSELAHEINRELRIEDIHLHDVDLQGDKVNMSGSLTGHVNGKRHEYTMKIHFEKINGRWIIRSVSWE”, the protease stability score stood at 1.39.
In turn, “NHDEEHLKRLLEDEREMLETGNEDEIRRLLDPHVRLDIDGRNIHGREEVAKWMVKLALRVDVFIIRVKRFHIQGDYIYFDTHIEEIVNGQHISFDVMIIIWKYNGRWLIHSIIVR” yielded a protease stability score of 1.58.
“NERKKFIEELARLYFKWWLTGDFENLLRNADPNTRIDVNGREIIGREKFVEELREHVDKFKNIREDLHDMDLQGDKVILHIRMNVDGKTIEVRVEIFVINGQIRSESWRFE” showed a protease stability score of 1.34.
Regarding “TEIKHHVKEMADLFLENLLTGNEDILKKLMDPNALLVVGNKHIHGWEEMIKQWKDVRRHMRIEHVETEDIELQGDKAHIHVNIFGQINGKRKESHVRIHFEVFDGVLRRVEIDER”, the protease stability score stood at 1.18.
For the sequence “SEDEELARIIMHLLEHATKTGDERILRKLLDPHVKIRVNGKDLIGWEEEHRRHEKLGADHLHLELIFKDWEFVGDYIKVHGEMRVRVNQGDKTDERNYEVRFYLLKVNGRWILESIQIH”, the protease stability score amounted to 2.63.
In turn, “DEDEKDAERAVKHWIKLMHTGDEELLIRLFDPHTRVEIDGVEFHGREKVTELFREFTKRVKNVRIILRRYRIVGEWIEVDTEVRVGDKSSEVHLVILKVDGKWIMHVEHYK” gave a protease stability score of 1.85.
As for “DELELHAEEMYEIWIKLEETGDWEIMLELADPNTKVTWNGVRIHGMEHYLERHHREHRKIKNITTHFILRDIDVIGNKSHVDGEVEIRVNGKTIILRVHFDNVVIDGRFKSHRVIVK”, the figure is 1.03; as for “DETEKIVRSVVHMFLHLMHTGDWEELMKLADPNTIVHFENHRKHGREDAIRHIIEFILRADHIEVHLDEIRIQGDKVYLNLRLILDINGRRIETRVHIILVKINGRWRIHSMDVE”, 1.4; as for “DEHDHILKRLSEELLHMMETGDEDALAELFDPHARMEYNGQEIHGRRDVERIRREILEKLGVDKIHTEVKEERFVGEKLEVHTHLHVDGVHFTVRIHWVKFNGRWVIRTLHIE”, 1.38.
Sequence “NEDEEHFKKWFEKYLRSLRTGDEENTRKLFDPHVRIEFENHELHGWENAVRFFRELHHRADVIHLELHDYTIVGDYVYIDVIVHLIYNGREFRHDVKIDASKIDGQWRIESLSIK” registered a protease stability score of 1.64.
The result for “SEDENLIEEFLRRLMKWHNTGNFDEILNMVDPNTRIIVGDKFHHGRDALRYMWEFLGVDHVRIHVKRQEIIGDKVHNDTELEVNVNGKNLRIKEKLVVIKVNGVWILERIEIQ” reads 1.48; that for “SEHEEEVKHFIELIVHFLKTGDEDHLAKMADPHVRLHIGDKEFHGREDFSKWVHLLLHHWRLKTFILRRVHVQGEKAHIDGQLDFDVDGKKTLLDVHLTVRKIDGRWFIETVIDG”, 2.35; that for “SEMEEEVRRAMKSFIKDLETGNEKSNHENVDPHARLLINGQEFHGMEHVSRWINKAGIDHFEIDEFRIIGNKIRIDGTITFNGQQHKVRIDVVKVDGRWLVKSLEII”, 1.29.
In the case of “DEHRKHAEDIFRLWLKAVKTGDEEHILDLMDPHVRLIILVGDKEIHLHGREEMKKENERLRHEWGVDRIRLEITRLDVQGDKIHSDGIDIFNGRNFRVKHHMKVVNGRVEEIKIEFE”, the protease stability score is 0.462.
Sequence “SEEEEEIKTWTDLFINLWMTGDFHTLVHLLDPNVKAEIDGVDVHGRESVEKMLRIFIKRLGADHSDVRDSSIVNGRLDIELESDVNGRIRTIDIHVLIINGRVKSLKVDIR” returned a protease stability score of 2.46.
Sequence “DEHEHFMEYAMKRMLHSWLTGDEHDWHELADPNVKLHIGEYNFIGREEYYRHLHRHLHEAGFKHIKIDHIHVEIQGEKLIFRMDTTIHFNGRKLRVEVIVILFKVNGRWSLHTDEVHIE” showed a protease stability score of 0.931.
In turn, “DDQDTNSELAVHLWILSMITGDERFLNEYMDPNAKVHVGDKEYHGREAYEFLRHRVDHIRESHIRRVHTQGNKVRVDVEFRIEVDGREINVRTELVLIKINGQWRFTEFTFK” registered a protease stability score of 2.22.
The sequence “SEEDELAKRILETLVRLLLTGNEELRHELADPNMRTEVDGVDLWGMHNDVHFWREIRLKELRIRHIEVQGDKSHSITDLDVEIDGKRIRVETKIRVVVVNGKIHRLHVRID” had a protease stability score of 1.51.
As for “DEEERLDEEIMERIHKAYATGDFDEIKRLIDPHVRSDINGVDTHGRDDAIHYLHHVYRRLGFKHFELKHVESYDGRVHTDGWLRFNGQERRVEFRWQVIDGRIHSVSLRMK”, the figure is 0.975; as for “SEEKEHSDRLAEHLIHWFYTGDEDKLNELFDPNTKYVINGKELHGMESEHRERREEWRRVKNITFSIKHWDIQGNKVILHMTIHVGEKDIFVTYEYRIFDGKMKEIQVHVR”, 0.867.
For the sequence “DDEDREAQELLNLYLHAHRTGDEHLLDELVDPHARIIVNGQEIHGRDFLEYLKKFWGITNVNIDIHIDDLKLYDGRIEVETRLILEINGQRYTYSSHEHWHKVNGKWISKRVDFE”, the protease stability score was 1.05.
As for “SELEHDARNAEHWFEETFRTGDEEDRERLLDPHVLVEFNGREYIGWHVFQKFFNDLGVDHMEVRIHDSKVFNGRVHLDGELTIRQGDKLIRSHVHLILTKVDGRWRMREIRIH”, the figure is 1.73; as for “TDRHEIIIHRMKRLMLMELTGDEKLWERLVDPDVRIIFIFNGRRHEFHGREKALERLHDWWDHLRIDHLEVRRYDVINGRARTDMESHDTYDGQHYVIKFELVVQVIDGRVHSVEMIFK”, 1.44; as for “DEDTNLLREFVRLLSEALKTGDEDTLRTLFDPHVRFIIGDKDLVGREAFHFFLERFDVIRSVELHNYDHYGDKVTLDTRQVIHVNGQDIRIHSHIVVTKVNGRWRLESVKFK”, 1.25.
“SEEERILEEILRRLLRLLATGDWEDLHKLFDPTVRIVFNGQLLHGWHEFIRTMHQLWVDRIRVERVRFQGDFQHYETRNDITINGVRIETESRVHVKIVDGRIKYFEFELT” returned a protease stability score of 2.53.
For “DEDTHDNRHALELLLRFLETGDEDSLRELADPNARLSVNGRNQHGREDLFSTWSEMGVDHMEIKSHRIVDGRLLLHGHIKFNGRREDVHIFMVKIDGRWYIEEVKIL”, the protease stability score was determined as 1.56.
As for “SEREEEMKHLHKNLVHNLFTGDEDSHKKLADPNARSVFDGRDFIGMDWWSRYYRHVFERFKGLRLENHHIHFQGNYLHIEARSYIGDKEEIWHFDYFMFDGKVHEVRMEVTKR”, the protease stability score stood at 0.813.
Sequence “DEDTKTAWRMLHLSHKAIETGDEHLIKHLFDPHVRIHIDGVDLHGREELLTHLRHWRMVVEDEVSKDSKSYGDKITLDGHVDLTFEYNGRRVRVIFDTRIIIVKFNGRWLIKTIHFE” had a protease stability score of 0.512.
With “EDDERELKLMLELLLHSQHTGDFKEAERLADPNARFEFNGREFHGREQFHSFIWKLGVDHSEVKRVRLQGEFLTLHIKHNVNGKEIDMIWYNVKVNGKWLIHHLEVR”, the protease stability score was 1.21.
With “SEDEWWARYVTKLLIHSMKTGDEDLLHELADPSTKLDVGDKRYHGREEFRRLMRELRERADHLTISIKHIEVQGDKVDLDMHIRLEYGDKFIELRVHIHVEKVNGQWRLREREER”, the protease stability score stood at 0.879.
Sequence “SEEEELTQELFERFHHVLRTGDWREMVHLADPNARNIFENRTIVGREDVSKILSELLQRVKGIRWHIESIHVQGDFLKLDYRMQVGDKSENVEIHYLKFNGKWILKSIRFE” displayed a protease stability score of 1.32.
Sequence “SEEVEEAVTKMRHIWEHFLTGDEDTLKELVDPTVRLEQGDKEYHGRDFYIKYSEHIRRRFKNLKIIERDMKFTVYNGKAQMQFDGELRVGDKSTEVVIFLHMRKIDGRWFIEAERIEIR” returned a protease stability score of 1.38.
With “SEEEKTVKELVRLILHLLSTGDEEKWLHLADPNMRIEIDFNGKHVELHGREHVHWLLKQFKNARIEIELKHVHVYDGVAEITSILHYHQGDFHWHTESEVMVVVVDGRIKEISFRIR”, the protease stability score worked out at 2.24.
Take “TEEEEEMRELTELWLNILHTGDEDRFRELADPRVRLHINGRHNHGREIFMEFFDRSLKILGADHRTIHRIRFIGDKIDIKGREYINGQETRATLHVIIVNGRIKFEEWRFD”: the protease stability score was 0.989.
The result for “DENTESVHWLIRVLIQSARTGDEDSMRHLFDPNTKLNINGQEIHGREVAEEWANRVDHIEHVELHRIRNIDGQLDVEGKMRGTVNGKRDENRIELIIIKVDGQWFLRSIRIE” reads 1.57; that for “DEHDEFLEISFKILKKTDDTGDERESRKLADPDARLHVNGVDFHGWEDFKKIMVDLGWRIEEIRIEHIRLVGDKIIIHERVRLRVGDKKRDLHFTIIALKINGRWHLRELHIE”, 1.38.
Regarding “DERTKSYELALRIIEHVNKTGDEEMSTHMADPNARVVQGEKEIHGRELFIRWMKEIRVEDIKHRDKTIIGDKLILRVDIHGIIDGRHEDFHVILIVTKVNGRWHLEEVRIH”, the protease stability score is 1.36.
As to “DEDDQWSEMLAKKYLDRVLTGDEKRMKSLLDPNVRLSVNGVDMHGREVFVHWLRTVLNRVDHQELRLRHLHSQGDKAHVDTEVIENWDGVKIVKETELEFIFVNGRFHSVFHRER”, the protease stability score came out at 0.267.
As for “SEEDEIAKHVWERFFKNVLTGDEDTLLRLLDPDTRLIVIIGDKEIHLHGREELSKFLSELRIHHLEITDWVSQGEKARTHVRSDGTVDGKRHHTEMELILIVINGRIKEIRILVR”, the figure is 1.07.

The record behind these values is the NTF2 design screens of Basanta et al. (2020).
